The results in this text go back to publication PMC8543943, “Structure-guided steric hindrance engineering of Bacillus badius phenylalanine dehydrogenase for efficient L-homophenylalanine synthesis” (Biotechnology for Biofuels, 2021).

What all share (experiment): purified protein
What all share (format): biochemical, Pseudobacillus badius

Substrate in data set [1]: NC(=O)C1=CN([C@@H]2O[C@H](COP(=O)(O)OP(=O)(O)OC[C@H]3O[C@@H](n4cnc5c(N)ncnc54)[C@H](O)[C@@H]3O)[C@@H](O)[C@H]2O)C=CC1
The conditions noted are these: reductive amination, 2 M NH4Cl/NH4OH pH 9.5, 20 mM 2-OPBA, 30 °C, varied: cofactor.

Substrate in data set [2]: O=C(O)C(=O)CCc1ccccc1
The conditions noted are these: reductive amination, 2 M NH4Cl/NH4OH pH 9.5, 0.5 mM NADH, 30 °C.

Substrate in data set [3]: O=C(O)C(=O)Cc1ccccc1
The conditions noted are these: reductive amination, 2 M NH4Cl/NH4OH pH 9.5, 0.5 mM NADH, 30 °C.

B1: BbPheDH (Pseudobacillus badius) (protein)
chain: SLVEKTSIIKDFTLFEKMSEHEQVVFCNDPATGLRAIIAIHDTTLGPALGGCRMQPYNSVEEALEDALRLSKGMTYKCAASDVDFGGGKAVIIGDPQKDKSPELFRAFGQFVDSLGGRFYTGTDMGTNMEDFIHAMKETNCIVGVPEAYGGGGDSSIPTAMGVLYGIKATNKMLFGKDDLGGVTYAIQGLGKVGYKVAEGLLEEGAHLFVTDINEQTLEAIQEKAKTTSGSVTVVASDEIYSQEADVFVPCAFGGVVNDETMKQFKVKAIAGSANNQLLTEDHGRHLADKGILYAPDYIVNSGGLIQVADELYEVNKERVLAKTKHIYDAILEVYQQAELDQITTMEAANRMCEQRMAARGRRNSFFTSSVKPKWDIRN
notes: His-tagged, full length, pET-28a (+), expressed in E. coli BL21 (DE3), Ni-NTA purified
Usually Km stands for the substrate concentration at which the rate is half of its maximum. What is called kcat is the maximal rate divided by the concentration of active sites. A word on the kcat/Km: it is the turnover number divided by the Michaelis constant. For the protein B1, in the data set “purified protein [1]”, the Km worked out at 65 ± 3 µM, the kcat stood at 8 ± 1 s⁻¹ and the kcat/Km is 115000 ± 14000 M⁻¹ s⁻¹. Moreover, in “purified protein [2]”, the Km came to 600 ± 60 µM, the kcat was 11 ± 1 s⁻¹ and the kcat/Km was 17000 ± 1000 M⁻¹ s⁻¹. In the data set “purified protein [3]”, the Km worked out at 300 ± 40 µM, the kcat was 115 ± 6 s⁻¹ and the kcat/Km came to 370000 ± 45000 M⁻¹ s⁻¹.
